Test results reported in article PMC9482650, “Quantitative fragmentomics allow affinity mapping of interactomes” (Nature Communications, 2022).

Assays:
Assay in all cases: holdup assay
Set-up in all cases: key: below the threshold = too weak to quantify, mostly under pKd 3.1 to 4
IL16_2, Q14005 = target: IL16_2, Q14005
INTU, Q9ULD6 = target: T1, INTU, Q9ULD6
T1 sequence (Q9ULD6 180-273, limits assumed, looked up): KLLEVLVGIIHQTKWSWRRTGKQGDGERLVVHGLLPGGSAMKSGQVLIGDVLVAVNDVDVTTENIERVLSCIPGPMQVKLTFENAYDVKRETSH

LNX2_1, Q8N448 = target: T2, LNX2_1, Q8N448
T2 sequence (Q8N448 228-328, limits assumed, looked up): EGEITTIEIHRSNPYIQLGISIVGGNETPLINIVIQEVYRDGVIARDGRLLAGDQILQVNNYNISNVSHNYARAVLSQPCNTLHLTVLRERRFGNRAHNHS

MAGI1_3, Q96QZ7 = target: MAGI1_3, Q96QZ7
Chain of MAGI1_3, Q96QZ7 (Q96QZ7 638-725): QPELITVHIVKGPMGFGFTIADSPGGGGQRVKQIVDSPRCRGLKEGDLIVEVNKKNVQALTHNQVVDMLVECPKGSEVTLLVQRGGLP

MAGI2_1, Q86UL8 = target: T3, MAGI2_1, Q86UL8
T3 sequence (Q86UL8 12-111, limits assumed, looked up): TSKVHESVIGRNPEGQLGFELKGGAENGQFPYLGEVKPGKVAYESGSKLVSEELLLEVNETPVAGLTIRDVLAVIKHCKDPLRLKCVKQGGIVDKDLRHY

MAGI3_4, Q5TCQ9 = target: MAGI3_4, Q5TCQ9
Chain of MAGI3_4, Q5TCQ9 (Q5TCQ9 716-815): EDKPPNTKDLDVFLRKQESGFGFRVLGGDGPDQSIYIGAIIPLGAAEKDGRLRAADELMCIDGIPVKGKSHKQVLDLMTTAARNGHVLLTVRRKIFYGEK

MAGI3_6, Q5TCQ9 = target: MAGI3_6, Q5TCQ9
Chain of MAGI3_6, Q5TCQ9 (Q5TCQ9 1014-1103): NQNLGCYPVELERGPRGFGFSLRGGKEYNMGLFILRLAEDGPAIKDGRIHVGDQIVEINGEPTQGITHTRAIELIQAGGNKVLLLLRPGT

MAGIX, Q9H6Y5 = target: MAGIX, Q9H6Y5
Chain of MAGIX, Q9H6Y5 (Q9H6Y5 118-211): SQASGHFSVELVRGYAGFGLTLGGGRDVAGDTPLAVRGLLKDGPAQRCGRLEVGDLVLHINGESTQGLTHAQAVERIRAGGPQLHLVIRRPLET

MPDZ_2, O75970 = target: T4, MPDZ_2, O75970
T4 sequence (O75970 252-347, limits assumed, looked up): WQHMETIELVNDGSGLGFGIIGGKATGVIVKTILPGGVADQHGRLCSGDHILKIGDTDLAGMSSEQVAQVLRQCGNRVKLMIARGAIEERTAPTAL

PARD6B, Q9BYG5 = target: T5, PARD6B, Q9BYG5
T5 sequence (Q9BYG5 152-260, limits assumed, looked up): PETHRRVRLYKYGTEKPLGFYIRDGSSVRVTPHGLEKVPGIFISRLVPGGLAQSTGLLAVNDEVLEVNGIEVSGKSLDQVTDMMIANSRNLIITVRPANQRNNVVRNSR

PDLIM4, P50479 = target: PDLIM4, P50479
Chain of PDLIM4, P50479 (P50479 1-83): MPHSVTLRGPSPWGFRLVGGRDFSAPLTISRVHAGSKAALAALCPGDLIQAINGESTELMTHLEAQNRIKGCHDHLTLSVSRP

PDZD11, Q5EBL8 = target: T6, PDZD11, Q5EBL8
T6 sequence (Q5EBL8 42-139, limits assumed, looked up): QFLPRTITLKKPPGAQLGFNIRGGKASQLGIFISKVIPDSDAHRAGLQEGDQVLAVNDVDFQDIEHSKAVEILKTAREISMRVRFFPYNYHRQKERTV

PDZD2_3, O15018 = target: T7, PDZD2_3, O15018
T7 sequence (O15018 581-682, limits assumed, looked up): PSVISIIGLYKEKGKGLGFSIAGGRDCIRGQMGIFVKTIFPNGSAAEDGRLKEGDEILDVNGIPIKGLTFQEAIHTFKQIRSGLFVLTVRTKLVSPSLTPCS

PDZRN4_2, Q6ZMN7 = target: PDZRN4_2, Q6ZMN7
Chain of PDZRN4_2, Q6ZMN7 (Q6ZMN7 389-498): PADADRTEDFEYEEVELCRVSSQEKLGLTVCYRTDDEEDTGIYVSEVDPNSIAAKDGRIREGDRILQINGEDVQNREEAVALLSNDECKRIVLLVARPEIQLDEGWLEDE

PTPN13_2, Q12923 = target: PTPN13_2, Q12923
Chain of PTPN13_2, Q12923 (Q12923 1363-1462): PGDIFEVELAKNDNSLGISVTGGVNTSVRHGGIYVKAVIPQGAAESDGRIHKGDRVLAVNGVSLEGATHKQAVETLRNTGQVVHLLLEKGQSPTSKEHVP

PTPN13_5, Q12923 = target: T8, PTPN13_5, Q12923
T8 sequence (Q12923 1877-1975, limits assumed, looked up): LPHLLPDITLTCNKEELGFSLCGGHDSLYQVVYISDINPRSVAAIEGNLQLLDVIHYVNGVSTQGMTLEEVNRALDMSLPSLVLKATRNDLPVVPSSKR

RIMS1, Q86UR5 = target: RIMS1, Q86UR5
Chain of RIMS1, Q86UR5 (Q86UR5 584-692): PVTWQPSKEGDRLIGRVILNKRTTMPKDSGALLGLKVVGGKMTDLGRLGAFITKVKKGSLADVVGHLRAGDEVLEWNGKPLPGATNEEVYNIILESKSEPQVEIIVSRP

SHANK3, Q9BYB0 = target: T9, SHANK3, Q9BYB0
T9 sequence (Q9BYB0 641-750, limits assumed, looked up): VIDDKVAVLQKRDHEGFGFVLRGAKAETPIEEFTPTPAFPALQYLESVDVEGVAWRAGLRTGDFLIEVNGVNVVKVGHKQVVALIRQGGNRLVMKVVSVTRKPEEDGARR

SIPA1L2, Q9P2F8 = target: T10, SIPA1L2, Q9P2F8
T10 sequence (Q9P2F8 945-1036, limits assumed, looked up): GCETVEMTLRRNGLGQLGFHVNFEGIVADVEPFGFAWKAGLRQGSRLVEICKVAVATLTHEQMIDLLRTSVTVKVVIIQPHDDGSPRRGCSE

SIPA1L3, O60292 = target: T11, SIPA1L3, O60292
T11 sequence (O60292 961-1052, limits assumed, looked up): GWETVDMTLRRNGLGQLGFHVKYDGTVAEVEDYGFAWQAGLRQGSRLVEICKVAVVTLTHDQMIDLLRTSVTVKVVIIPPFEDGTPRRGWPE

SYNPO2L, Q9H987 = target: T12, SYNPO2L, Q9H987
T12 sequence (Q9H987 1-98, limits assumed, looked up): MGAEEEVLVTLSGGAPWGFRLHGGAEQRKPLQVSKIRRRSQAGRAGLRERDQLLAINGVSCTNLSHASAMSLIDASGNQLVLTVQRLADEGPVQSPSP

TJP3_1, O95049 = target: T13, TJP3_1, O95049
T13 sequence (O95049 6-103, limits assumed, looked up): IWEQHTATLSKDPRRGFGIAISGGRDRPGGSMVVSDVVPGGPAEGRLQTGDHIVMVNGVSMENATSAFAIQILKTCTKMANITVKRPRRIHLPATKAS

TJP3_2, O95049 = target: T14, TJP3_2, O95049
T14 sequence (O95049 190-282, limits assumed, looked up): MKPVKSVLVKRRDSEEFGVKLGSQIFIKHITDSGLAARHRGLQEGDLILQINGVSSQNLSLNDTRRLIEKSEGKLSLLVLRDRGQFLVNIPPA

[1] = modified: phospho on S at position -3 from the C-terminal residue
[2] = modified: acetyl on K at position -1 from the C-terminal residue
[3] = plain residues with an end cap or a label only (N-terminal biotin on a linker: ado-ado)

Chain of IL16_2, Q14005 (Q14005 350-450): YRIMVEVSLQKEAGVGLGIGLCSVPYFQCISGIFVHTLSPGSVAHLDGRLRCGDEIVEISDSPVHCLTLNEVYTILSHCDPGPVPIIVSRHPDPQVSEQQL

RRVRKLPSTTL [RPS6KA1_-3P, Q15418]
pKd (IL16_2, Q14005; [1]): below the threshold
pKd (INTU, Q9ULD6; [1]): below the threshold
pKd (LNX2_1, Q8N448; [1]): below the threshold
pKd (MAGI1_3, Q96QZ7; [1]): below the threshold
pKd (MAGI2_1, Q86UL8; [1]): below the threshold
pKd (MAGI3_4, Q5TCQ9; [1]): below the threshold
pKd (MAGI3_6, Q5TCQ9; [1]): below the threshold
pKd (MAGIX, Q9H6Y5; [1]): below the threshold
pKd (MPDZ_2, O75970; [1]): below the threshold
pKd (PARD6B, Q9BYG5; [1]): below the threshold
pKd (PDLIM4, P50479; [1]): 3.63
pKd (PDZD11, Q5EBL8; [1]): below the threshold
pKd (PDZD2_3, O15018; [1]): below the threshold
pKd (PDZRN4_2, Q6ZMN7; [1]): below the threshold
pKd (PTPN13_2, Q12923; [1]): below the threshold
pKd (PTPN13_5, Q12923; [1]): below the threshold
pKd (RIMS1, Q86UR5; [1]): below the threshold
pKd (SHANK3, Q9BYB0; [1]): below the threshold
pKd (SIPA1L2, Q9P2F8; [1]): below the threshold
pKd (SIPA1L3, O60292; [1]): below the threshold
pKd (SYNPO2L, Q9H987; [1]): below the threshold
pKd (TJP3_1, O95049; [1]): below the threshold
pKd (TJP3_2, O95049; [1]): below the threshold

DEDQHTQITKV [PTEN_Ac, P60484]
pKd (IL16_2, Q14005; [2]): below the threshold
pKd (INTU, Q9ULD6; [2]): below the threshold
pKd (LNX2_1, Q8N448; [2]): below the threshold
pKd (MAGI1_3, Q96QZ7; [2]): 4.98
pKd (MAGI2_1, Q86UL8; [2]): below the threshold
pKd (MAGI3_4, Q5TCQ9; [2]): below the threshold
pKd (MAGI3_6, Q5TCQ9; [2]): 4.08
pKd (MAGIX, Q9H6Y5; [2]): below the threshold
pKd (MPDZ_2, O75970; [2]): 4.3
pKd (PARD6B, Q9BYG5; [2]): below the threshold
pKd (PDLIM4, P50479; [2]): below the threshold
pKd (PDZD11, Q5EBL8; [2]): below the threshold
pKd (PDZD2_3, O15018; [2]): below the threshold
pKd (PDZRN4_2, Q6ZMN7; [2]): below the threshold
pKd (PTPN13_2, Q12923; [2]): below the threshold
pKd (PTPN13_5, Q12923; [2]): below the threshold
pKd (RIMS1, Q86UR5; [2]): below the threshold
pKd (SHANK3, Q9BYB0; [2]): 4.04
pKd (SIPA1L2, Q9P2F8; [2]): below the threshold
pKd (SIPA1L3, O60292; [2]): below the threshold
pKd (SYNPO2L, Q9H987; [2]): below the threshold
pKd (TJP3_1, O95049; [2]): below the threshold
pKd (TJP3_2, O95049; [2]): below the threshold

LDKESFLTWL [YAP1, P46937]
pKd (SIPA1L2, Q9P2F8; [3]): below the threshold

KSTTRSSSSC [NDE1, Q9NXR1;Q9NXR1-2]
pKd (SIPA1L2, Q9P2F8; [3]): below the threshold

VRPGVKESLV [SCN4A, P35499]
pKd (SIPA1L2, Q9P2F8; [3]): below the threshold

RDFDYIADWC [PKN2, Q16513]
pKd (SIPA1L2, Q9P2F8; [3]): below the threshold

RRLQGTSSMV [GOLT1A, Q6ZVE7]
pKd (SIPA1L2, Q9P2F8; [3]): below the threshold

TGPWKNETTV [ADGRA1, Q86SQ6]
pKd (SIPA1L2, Q9P2F8; [3]): below the threshold

ALPLPQSSTC [IGF1R, P08069]
pKd (SIPA1L2, Q9P2F8; [3]): below the threshold

REKKFFCTIL [GNG4, P50150]
pKd (SIPA1L2, Q9P2F8; [3]): 4.01

DHLGGGGESM [TNRC6A, Q8NDV7]
pKd (SIPA1L2, Q9P2F8; [3]): below the threshold

IPGKEFDTPL [PLCB1, Q9NQ66]
pKd (SIPA1L2, Q9P2F8; [3]): below the threshold

NLQEHSTTSV [RSBN1, Q5VWQ0]
pKd (SIPA1L2, Q9P2F8; [3]): below the threshold

HLRQQGSVEV [EPHB6, O15197]
pKd (SIPA1L2, Q9P2F8; [3]): below the threshold

TGLWKSETTV [ADGRA2, Q96PE1]
pKd (SIPA1L2, Q9P2F8; [3]): below the threshold

FTLPAESSEI [PLEKHG7, Q6ZR37]
pKd (SIPA1L2, Q9P2F8; [3]): below the threshold

EWTDERQSKV [GAB3, Q8WWW8]
pKd (SIPA1L2, Q9P2F8; [3]): below the threshold

ASGLDKRDYV [CLDN9, O95484]
pKd (SIPA1L2, Q9P2F8; [3]): below the threshold

PDSNPEESSV [SEMA4C, Q9C0C4]
pKd (SIPA1L2, Q9P2F8; [3]): below the threshold

NPETRDETQL [KCNT1, Q5JUK3]
pKd (SIPA1L2, Q9P2F8; [3]): below the threshold

SSGSTSSSRI [ADGRG1, Q9Y653]
pKd (SIPA1L2, Q9P2F8; [3]): below the threshold

PEEGKKQSQC [GAGE12J, A6NER3]
pKd (SIPA1L2, Q9P2F8; [3]): below the threshold

PKLMGVETVV [DUSP10, Q9Y6W6]
pKd (SIPA1L2, Q9P2F8; [3]): below the threshold

QLAEIAESGL [ITK, Q08881]
pKd (SIPA1L2, Q9P2F8; [3]): 3.67

EGGKKRESEA [APPL1, Q9UKG1]
pKd (SIPA1L2, Q9P2F8; [3]): below the threshold

VGIERETDVL [EZH1, Q92800]
pKd (SIPA1L2, Q9P2F8; [3]): below the threshold

GSSSKEGTSV [RRBP1, Q9P2E9]
pKd (SIPA1L2, Q9P2F8; [3]): below the threshold

ADRDHASDQL [CTBP1, Q13363]
pKd (SIPA1L2, Q9P2F8; [3]): below the threshold
